Reference: paper PMC7081834

Target: Myc-PTEN wild type (human) (UniProt P60484)
Assay: native gel or EMSA

Myc-PTEN wild type, P60484 1-403 (natural protein; other documents disagree on this pair)
stoichiometry N: 2
